“And” between values parts separate entries of the source, which are not always exact repeats. Equal entries are not always repeated.

Data set [1] deals with the molecule itself. Description: two-photon scanning number and brightness (sN&B) fluctuation microscopy; live cultured rat hippocampal neurons, cell-surface SNAP-tagged receptor labelled with Alexa488, imaging buffer pH 7.3, no ligand (basal); numbers for expression of 90-600 subunits/Veff; brightness normalised to monomeric Alexa488.
Data set [2] concerns the molecule itself. In words: two-photon scanning number and brightness (sN&B) fluctuation microscopy; live cultured rat hippocampal neurons, SNAP-tag labelled with Alexa488, incubated with 150 μM CuP for the last 10 min of labelling, imaged in the absence of ligand; 90-600 subunits/Veff; apparent stoichiometry (lower with CuP).
Data set [3] deals with the molecule itself. In words: two-photon scanning number and brightness (sN&B) fluctuation microscopy; live cultured rat hippocampal neurons, SNAP-tag labelled with Alexa488, with agonist and PAM (10 nM LY379268 + 3 μM BINA) during labelling and imaging; numbers for 90-600 subunits/Veff.
Data set [4] deals with the molecule itself. Description: two-photon scanning number and brightness (sN&B) fluctuation microscopy; live cultured rat hippocampal neurons, SNAP-tag labelled with Alexa488, with antagonist (400 nM LY341495) during labelling and imaging; numbers for 90-600 subunits/Veff.
Data set [5] concerns the molecule itself. In words: two-photon scanning number and brightness (sN&B) fluctuation microscopy; live cultured rat hippocampal neurons, SNAP-tag labelled with Alexa488, incubated with 150 μM CuP, bound to antagonist (400 nM LY341495); 90-600 subunits/Veff; apparent stoichiometry (lower with CuP).

B1: metabotropic glutamate receptor type 2 (mGlu2), wild type, with a SNAP-tag fused to the extracellular N-terminus (HA-ST-mGlu2) (receptor, rat, UniProt P31421 19-872, looked up)
chain: EGPAKKVLTLEGDLVLGGLFPVHQKGGPAEECGPVNEHRGIQRLEAMLFALDRINRDPHLLPGVRLGAHILDSCSKDTHALEQALDFVRASLSRGADGSRHICPDGSYATHSDAPTAVTGVIGGSYSDVSIQVANLLRLFQIPQISYASTSAKLSDKSRYDYFARTVPPDFFQAKAMAEILRFFNWTYVSTVASEGDYGETGIEAFELEARARNICVATSEKVGRAMSRAAFEGVVRALLQKPSARVAVLFTRSEDARELLAATQRLNASFTWVASDGWGALESVVAGSERAAEGAITIELASYPISDFASYFQSLDPWNNSRNPWFREFWEERFHCSFRQRDCAAHSLRAVPFEQESKIMFVVNAVYAMAHALHNMHRALCPNTTHLCDAMRPVNGRRLYKDFVLNVKFDAPFRPADTDDEVRFDRFGDGIGRYNIFTYLRAGSGRYRYQKVGYWAEGLTLDTSFIPWASPSAGPLPASRCSEPCLQNEVKSVQPGEVCCWLCIPCQPYEYRLDEFTCADCGLGYWPNASLTGCFELPQEYIRWGDAWAVGPVTIACLGALATLFVLGVFVRHNATPVVKASGRELCYILLGGVFLCYCMTFVFIAKPSTAVCTLRRLGLGTAFSVCYSALLTKTNRIARIFGGAREGAQRPRFISPASQVAICLALISGQLLIVAAWLVVEAPGTGKETAPERREVVTLRCNHRDASMLGSLAYNVLLIALCTLYAFKTRKCPENFNEAKFIGFTMYTTCIIWLAFLPIFYVTSSDYRVQTTTMCVSVSLSGSVVLGCLFAPKLHIILFQPQKNVVSHRAPTSRFGSAAPRASANLGQGSGSQFVPTVCNGREVVDSTTSSL
modifications: Alexa488 (BG-Alexa488) covalently on the SNAP-tag
notes: metabotropic glutamate receptor 2 (mGlu2), rat, wild type; HA-tag and SNAP-tag inserted just after the signal peptide; pRK5 plasmid, CMV promoter exchanged for the synapsin-1 promoter; also called mGlu2 receptor; wild type receptor; source: cultured rat hippocampal neurons, transfected (Lipofectamine 2000), on live cells; not shown: SNAP-tag, N-terminal, kept
Regarding B1, the “stoichiometry N” value is 2.2 subunits per complex and 1.66 subunits/complex in data set [1]; 1.7 subunits/complex in data set [2]; 4 subunits/complex in data set [3]; 3.7 subunits/complex in data set [4]; 3 subunits/complex in data set [5].

These data come from PMC6039492, “Oligomerization of a G protein-coupled receptor in neurons controlled by its structural dynamics” (Scientific Reports, 2018).
